The values that follow are results of earlier work, collected in publication PMC10466379.

By pKa is commonly meant the negative logarithm of the acid dissociation constant.

Common to all, as to assay: not stated (values taken from the PKAD database; the article says PKAD values come mainly from NMR or IR titrations)
Conditions in all cases: not stated (the curated set excludes proteins with ligands, nucleic acids and structural metal ions)

For data set [1], the target named is Glu90 (UniProt position 172, YGRGLEYIYAD).
The target of data set [2] is Glu132 (UniProt position 214, KSEAQEKKEKL).
The target in data set [3] is Glu34 (UniProt position 116, GQPMTERLLLV).
For data set [4], the target named is Glu20 (UniProt position 102, IKAIDEDTVKL).
Data set [5] concerns the target Glu72 (UniProt position 154, ENAKKEEVEFD).
Data set [6] has as its target Glu25 (UniProt position 107, GDTVKEMYKGQ).
Data set [7] concerns the target Glu37 (UniProt position 119, MTFRLELVDTP).
Data set [8] deals with Glu38 (UniProt position 120, TFRLLEVDTPE).
The target of data set [9] is Glu100 (UniProt position 182, DGKMVEEALVR).
The target in data set [10] is Glu118 (UniProt position 200, YVYKPENTHEQ).
Data set [11] addresses Glu41 (UniProt position 123, LLLVDEPETKH).
Data set [12] addresses Glu62 (UniProt position 144, EASAFEKKMVE).
Data set [13] deals with Glu23 (UniProt position 105, IDGDTEKLMYK).
The target of data set [14] is Glu39 (UniProt position 121, FRLLLEDTPET).
Data set [15] addresses Glu74 (UniProt position 156, AKKIEEEFDKG).
The target of data set [16] is Glu99 (UniProt position 181, ADGKMENEALV).
The target in data set [17] is Glu91 (UniProt position 173, GRGLAEIYADG).

For the substance “staphylococcal nuclease variant A90E (parent PDB 2LKV) (Staphylococcus aureus (inferred from PDB 2LKV; not stated in the article); A90E)”, the pKa in data set [1] is 6.4. Turning to “staphylococcal nuclease variant A132E (parent PDB 2LKV) (Staphylococcus aureus (inferred from PDB 2LKV; not stated in the article); A132E)”, in data set [2], the pKa is 7. In the case of “staphylococcal nuclease variant F34E (parent PDB 2LKV) (Staphylococcus aureus (inferred from PDB 2LKV; not stated in the article); F34E)”, in [3], the pKa is on record as 7.3. In the case of “staphylococcal nuclease variant G20E (parent PDB 2LKV) (Staphylococcus aureus (inferred from PDB 2LKV; not stated in the article); G20E)”, the pKa in data set [4] is given as 4.5. For the substance “staphylococcal nuclease variant I72E (parent PDB 2LKV) (Staphylococcus aureus (inferred from PDB 2LKV; not stated in the article); I72E)”, in [5], the pKa was 7.3. With “staphylococcal nuclease variant L25E (parent PDB 2LKV) (Staphylococcus aureus (inferred from PDB 2LKV; not stated in the article); L25E)”, the pKa in data set [6] was 7.5. On to “staphylococcal nuclease variant L37E (parent PDB 2LKV) (Staphylococcus aureus (inferred from PDB 2LKV; not stated in the article); L37E)”, for which the pKa in data set [7] is recorded as 5.2. With “staphylococcal nuclease variant L38E (parent PDB 2LKV) (Staphylococcus aureus (inferred from PDB 2LKV; not stated in the article); L38E)”, the pKa in data set [8] is reported as 6.8. As to “staphylococcal nuclease variant N100E (parent PDB 2LKV) (Staphylococcus aureus (inferred from PDB 2LKV; not stated in the article); N100E)”, in data set [9], the pKa was 7.6. “staphylococcal nuclease variant N118E (parent PDB 2LKV) (Staphylococcus aureus (inferred from PDB 2LKV; not stated in the article); N118E)”: the pKa in data set [10] is 4.5.

For “staphylococcal nuclease variant T41E (parent PDB 2LKV) (Staphylococcus aureus (inferred from PDB 2LKV; not stated in the article); T41E)”, the pKa in [11] is 6.8. For the substance “staphylococcal nuclease variant T62E (parent PDB 2LKV) (Staphylococcus aureus (inferred from PDB 2LKV; not stated in the article); T62E)”, in data set [12], the pKa is reported as 7.7. For the substance “staphylococcal nuclease variant V23E (parent PDB 2LKV) (Staphylococcus aureus (inferred from PDB 2LKV; not stated in the article); V23E)”, the pKa in data set [13] is on record as 7.1.

For “staphylococcal nuclease variant V39E (parent PDB 2LKV) (Staphylococcus aureus (inferred from PDB 2LKV; not stated in the article); V39E)”, the pKa in data set [14] is 8.2. Turning to “staphylococcal nuclease variant V74E (parent PDB 2LKV) (Staphylococcus aureus (inferred from PDB 2LKV; not stated in the article); V74E)”, the pKa in data set [15] is reported as 7.8. Consider “staphylococcal nuclease variant V99E (parent PDB 2LKV) (Staphylococcus aureus (inferred from PDB 2LKV; not stated in the article); V99E)”, for which the pKa in [16] was 8.4. For the substance “staphylococcal nuclease variant Y91E (parent PDB 2LKV) (Staphylococcus aureus (inferred from PDB 2LKV; not stated in the article); Y91E)”, the pKa in data set [17] is recorded as 7.1.
